Experimental data from the supplement of paper PMC10065799, “High-throughput profiling of sequence recognition by tyrosine kinases and SH2 domains using bacterial peptide display” (eLife, 2023).

What was measured:
FGFR1 = FGFR1 (UniProt P11362); assay: phosphorylation enrichment, bacterial display (enrichment ratio); higher = better substrate or ligand; peptides without Tyr show the background
c-Abl (mouse) = assay: as above
EPHB2 = EPHB2 (UniProt P29323); assay: as above
MERTK = MERTK (UniProt Q12866); assay: as above
Fes = Fes (UniProt P07332); assay: as above
AncSZ = assay: as above
Jak2 = Jak2 (UniProt O60674); assay: as above
Fyn = Fyn (UniProt P06241); assay: as above
Hck = Hck (UniProt P08631); assay: as above
Fer (mouse) = assay: as above
EPHB1 = EPHB1 (UniProt P54762); assay: as above
FGFR3 = FGFR3 (UniProt P22607); assay: as above
c-Src = assay: as above
Grb2 SH2 = Grb2 SH2 (UniProt P62993); assay: SH2 binding enrichment of the phosphorylated peptide, bacterial display (enrichment ratio); higher = better substrate or ligand; peptides without Tyr show the background
c-Src SH2 = assay: as above
SHP2-C SH2 = assay: as above
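For SH2 binding enrichment of the phosphorylated peptide, bacterial display in this document: peptide library displayed on the E. coli surface as eCPX fusions, selected cells deep-sequenced, score is each peptide's frequency after selection divided by its frequency in the input.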
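For phosphorylation enrichment, bacterial display in this document: 11-residue human phosphosite peptides and single-mutation variants displayed on the E. coli surface, counted by deep sequencing, each peptide's frequency after selection divided by its frequency in the unselected input library; frequency after pTyr selection over input frequency; kinase dosed for 20-30% of maximal phosphorylation in three min.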

Chain of Fyn (P06241 whole entry, looked up): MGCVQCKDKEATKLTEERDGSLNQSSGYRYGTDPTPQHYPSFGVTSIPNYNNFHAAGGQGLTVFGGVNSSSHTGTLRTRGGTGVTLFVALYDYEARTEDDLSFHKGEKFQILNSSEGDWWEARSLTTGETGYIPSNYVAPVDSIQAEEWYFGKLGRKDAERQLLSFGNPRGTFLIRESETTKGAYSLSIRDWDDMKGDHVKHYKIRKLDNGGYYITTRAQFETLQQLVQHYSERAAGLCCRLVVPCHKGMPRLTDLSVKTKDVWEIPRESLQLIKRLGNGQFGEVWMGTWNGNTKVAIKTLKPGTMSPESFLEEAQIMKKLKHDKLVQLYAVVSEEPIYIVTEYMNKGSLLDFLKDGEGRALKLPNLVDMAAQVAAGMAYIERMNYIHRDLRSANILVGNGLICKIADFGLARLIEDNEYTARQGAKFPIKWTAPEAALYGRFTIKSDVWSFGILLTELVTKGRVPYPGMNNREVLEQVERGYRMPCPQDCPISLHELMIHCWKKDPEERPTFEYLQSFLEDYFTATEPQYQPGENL
Chain of EPHB1 (P54762 whole entry, looked up): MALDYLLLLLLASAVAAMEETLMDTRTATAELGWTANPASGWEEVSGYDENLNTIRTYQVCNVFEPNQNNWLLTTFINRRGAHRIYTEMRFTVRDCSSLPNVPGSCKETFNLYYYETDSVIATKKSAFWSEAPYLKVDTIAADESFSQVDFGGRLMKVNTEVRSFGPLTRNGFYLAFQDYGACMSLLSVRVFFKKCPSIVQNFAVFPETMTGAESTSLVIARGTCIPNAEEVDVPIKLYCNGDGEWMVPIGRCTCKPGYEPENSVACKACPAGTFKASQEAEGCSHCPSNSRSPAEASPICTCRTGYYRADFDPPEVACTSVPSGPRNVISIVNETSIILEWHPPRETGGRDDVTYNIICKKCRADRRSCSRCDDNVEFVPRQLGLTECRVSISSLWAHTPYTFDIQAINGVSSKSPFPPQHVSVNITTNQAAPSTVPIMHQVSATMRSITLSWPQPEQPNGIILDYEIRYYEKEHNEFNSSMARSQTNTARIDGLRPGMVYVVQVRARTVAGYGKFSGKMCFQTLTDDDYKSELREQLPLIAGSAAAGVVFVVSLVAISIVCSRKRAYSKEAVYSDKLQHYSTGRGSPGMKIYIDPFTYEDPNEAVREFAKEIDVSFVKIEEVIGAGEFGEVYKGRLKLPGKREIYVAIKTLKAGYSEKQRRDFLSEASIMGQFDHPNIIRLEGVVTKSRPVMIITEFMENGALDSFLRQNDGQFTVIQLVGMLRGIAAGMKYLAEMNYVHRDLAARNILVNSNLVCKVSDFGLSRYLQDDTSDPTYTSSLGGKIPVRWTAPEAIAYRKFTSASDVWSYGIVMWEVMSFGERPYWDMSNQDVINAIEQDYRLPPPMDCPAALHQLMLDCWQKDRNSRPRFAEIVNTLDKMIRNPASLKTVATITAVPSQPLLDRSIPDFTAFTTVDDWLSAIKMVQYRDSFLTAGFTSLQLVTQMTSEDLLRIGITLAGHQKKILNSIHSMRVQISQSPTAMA
Chain of EPHB2 (P29323 whole entry, looked up): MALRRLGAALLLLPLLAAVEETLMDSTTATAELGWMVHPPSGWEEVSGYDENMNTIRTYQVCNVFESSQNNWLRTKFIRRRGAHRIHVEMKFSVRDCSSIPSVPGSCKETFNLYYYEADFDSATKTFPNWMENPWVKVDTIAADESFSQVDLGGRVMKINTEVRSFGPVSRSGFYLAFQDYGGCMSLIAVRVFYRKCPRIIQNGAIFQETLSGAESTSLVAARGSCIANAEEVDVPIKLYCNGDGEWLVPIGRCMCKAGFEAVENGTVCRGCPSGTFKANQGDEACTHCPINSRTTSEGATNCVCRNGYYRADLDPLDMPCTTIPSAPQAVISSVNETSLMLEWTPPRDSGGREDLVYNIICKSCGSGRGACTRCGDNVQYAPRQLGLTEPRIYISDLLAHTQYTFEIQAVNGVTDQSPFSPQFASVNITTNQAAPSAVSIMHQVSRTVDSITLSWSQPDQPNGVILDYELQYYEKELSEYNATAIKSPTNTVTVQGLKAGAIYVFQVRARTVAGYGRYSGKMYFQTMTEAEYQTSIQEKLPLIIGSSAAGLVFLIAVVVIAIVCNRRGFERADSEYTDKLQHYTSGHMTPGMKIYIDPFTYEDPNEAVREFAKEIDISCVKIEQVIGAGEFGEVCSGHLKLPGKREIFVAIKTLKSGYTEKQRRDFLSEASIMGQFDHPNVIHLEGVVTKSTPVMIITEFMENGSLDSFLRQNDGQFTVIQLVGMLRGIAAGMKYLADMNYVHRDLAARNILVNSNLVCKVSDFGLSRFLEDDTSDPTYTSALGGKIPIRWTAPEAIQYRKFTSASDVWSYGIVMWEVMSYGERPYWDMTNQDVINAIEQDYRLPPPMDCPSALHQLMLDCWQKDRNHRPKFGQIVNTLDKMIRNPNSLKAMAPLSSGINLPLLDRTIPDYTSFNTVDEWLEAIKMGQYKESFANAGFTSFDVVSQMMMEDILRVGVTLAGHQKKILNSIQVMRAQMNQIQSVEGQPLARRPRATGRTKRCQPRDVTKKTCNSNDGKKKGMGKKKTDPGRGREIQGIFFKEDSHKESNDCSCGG
Chain of FGFR1 (P11362 whole entry, looked up): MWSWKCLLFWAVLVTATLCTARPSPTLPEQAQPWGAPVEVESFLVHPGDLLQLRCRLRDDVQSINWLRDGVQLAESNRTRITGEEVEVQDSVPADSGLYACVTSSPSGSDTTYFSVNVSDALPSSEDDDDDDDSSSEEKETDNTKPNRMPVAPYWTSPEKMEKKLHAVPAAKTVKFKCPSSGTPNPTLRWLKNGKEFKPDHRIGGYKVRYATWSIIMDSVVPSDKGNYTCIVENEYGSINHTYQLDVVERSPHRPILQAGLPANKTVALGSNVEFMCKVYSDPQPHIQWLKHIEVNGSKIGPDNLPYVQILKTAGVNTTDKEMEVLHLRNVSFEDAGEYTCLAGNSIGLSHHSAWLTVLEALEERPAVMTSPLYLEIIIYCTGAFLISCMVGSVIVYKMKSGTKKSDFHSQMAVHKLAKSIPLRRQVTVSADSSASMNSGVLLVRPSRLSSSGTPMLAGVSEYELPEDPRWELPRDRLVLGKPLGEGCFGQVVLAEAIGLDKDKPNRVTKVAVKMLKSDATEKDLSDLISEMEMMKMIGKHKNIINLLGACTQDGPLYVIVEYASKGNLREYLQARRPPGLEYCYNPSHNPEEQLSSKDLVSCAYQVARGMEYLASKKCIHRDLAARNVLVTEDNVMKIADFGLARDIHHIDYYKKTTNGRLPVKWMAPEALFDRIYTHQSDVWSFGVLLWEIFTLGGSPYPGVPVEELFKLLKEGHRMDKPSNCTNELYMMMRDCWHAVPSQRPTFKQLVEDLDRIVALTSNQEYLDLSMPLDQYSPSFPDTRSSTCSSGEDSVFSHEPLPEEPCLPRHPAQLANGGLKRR
Chain of Fes (P07332 whole entry, looked up): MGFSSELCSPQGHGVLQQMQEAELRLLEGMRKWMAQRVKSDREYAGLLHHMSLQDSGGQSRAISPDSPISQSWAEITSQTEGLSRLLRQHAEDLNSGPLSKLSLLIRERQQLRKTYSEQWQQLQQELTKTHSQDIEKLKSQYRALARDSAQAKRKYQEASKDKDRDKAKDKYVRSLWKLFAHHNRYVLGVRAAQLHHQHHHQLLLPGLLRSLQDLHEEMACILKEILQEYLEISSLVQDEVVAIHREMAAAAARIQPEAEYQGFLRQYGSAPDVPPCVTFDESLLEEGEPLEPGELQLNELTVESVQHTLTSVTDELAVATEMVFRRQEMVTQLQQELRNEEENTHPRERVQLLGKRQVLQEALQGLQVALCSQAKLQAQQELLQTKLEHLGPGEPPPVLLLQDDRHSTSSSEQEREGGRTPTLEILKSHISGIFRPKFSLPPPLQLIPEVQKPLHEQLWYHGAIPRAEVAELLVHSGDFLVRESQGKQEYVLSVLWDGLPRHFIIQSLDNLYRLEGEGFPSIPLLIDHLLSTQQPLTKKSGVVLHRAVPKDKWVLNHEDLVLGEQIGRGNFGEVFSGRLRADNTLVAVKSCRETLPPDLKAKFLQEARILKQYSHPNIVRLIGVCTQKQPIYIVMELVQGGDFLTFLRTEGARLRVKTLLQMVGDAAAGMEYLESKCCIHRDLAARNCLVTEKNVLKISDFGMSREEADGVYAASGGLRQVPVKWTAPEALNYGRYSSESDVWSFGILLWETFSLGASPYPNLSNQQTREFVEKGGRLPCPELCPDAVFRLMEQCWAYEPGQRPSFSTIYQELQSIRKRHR
Chain of Hck (P08631 whole entry, looked up): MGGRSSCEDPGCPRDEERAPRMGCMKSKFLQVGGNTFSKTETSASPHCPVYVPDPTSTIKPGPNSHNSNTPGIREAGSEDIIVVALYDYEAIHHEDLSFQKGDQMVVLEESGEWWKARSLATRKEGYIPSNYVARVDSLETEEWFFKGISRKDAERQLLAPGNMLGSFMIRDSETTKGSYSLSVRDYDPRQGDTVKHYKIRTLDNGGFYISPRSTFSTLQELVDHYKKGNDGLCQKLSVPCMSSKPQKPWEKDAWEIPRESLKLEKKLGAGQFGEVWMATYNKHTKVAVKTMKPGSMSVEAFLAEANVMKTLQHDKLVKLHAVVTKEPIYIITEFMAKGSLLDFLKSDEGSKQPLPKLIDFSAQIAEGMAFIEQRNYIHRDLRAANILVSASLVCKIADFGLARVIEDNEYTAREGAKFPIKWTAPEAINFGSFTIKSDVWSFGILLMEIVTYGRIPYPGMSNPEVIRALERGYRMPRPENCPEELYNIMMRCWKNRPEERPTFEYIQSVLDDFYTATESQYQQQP
Chain of Grb2 SH2 (P62993 whole entry, looked up): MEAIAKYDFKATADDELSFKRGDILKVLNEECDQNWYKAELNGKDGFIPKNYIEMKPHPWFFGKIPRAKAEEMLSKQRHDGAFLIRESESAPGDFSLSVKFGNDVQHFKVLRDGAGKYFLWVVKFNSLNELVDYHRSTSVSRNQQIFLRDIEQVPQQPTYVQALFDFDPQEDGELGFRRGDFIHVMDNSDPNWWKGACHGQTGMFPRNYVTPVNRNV

Row | Sequence | phosphorylation enrichment (FGFR1) | phosphorylation enrichment (c-Abl (mouse)) | phosphorylation enrichment (EPHB2) | phosphorylation enrichment (MERTK) | phosphorylation enrichment (Fes) | phosphorylation enrichment (AncSZ) | phosphorylation enrichment (Jak2) | phosphorylation enrichment (Fyn) | phosphorylation enrichment (Hck) | phosphorylation enrichment (Fer (mouse)) | phosphorylation enrichment (EPHB1) | phosphorylation enrichment (FGFR3) | phosphorylation enrichment (c-Src) | SH2 binding enrichment (Grb2 SH2) | SH2 binding enrichment (c-Src SH2) | SH2 binding enrichment (SHP2-C SH2)
1 | FSCLPYGRLAY [SLC52A2_Y305] | 0.463 | 0.595 | 0.513 | 0.393 | 0.98 | 1.01 | 0.782 | 0.618 | 0.894 | 0.619 | 0.559 | 0.641 | 1.84 | 0.804 | 0.455 | 0.465
2 | KMTGRYEMYAR [UPB1_Y362] | 0.523 | 0.54 | 0.627 | 0.428 | 0.789 | 0.828 | 0.674 | 0.476 | 0.549 | 0.438 | 0.58 | 0.487 | 0.416 | 1.13 | 1.12 | 0.909
3 | FMFKVYSDPQP [FGFR1_Y280_C277Y_YF] | 0.572 | 1.16 | 0.845 | 0.438 | 1.68 | 1.54 | 1.49 | 0.596 | 0.667 | 0.679 | 1.08 | 1.08 | 0.398 | 0.693 | 0.49 | 0.566
4 | SIKHKYVTALY [KCNH2_Y611_D609H] | 0.45 | 0.444 | 0.4 | 0.407 | 0.582 | 0.537 | 0.528 | 0.43 | 0.524 | 0.398 | 0.399 | 0.594 | 0.398 | 0.761 | 0.484 | 0.63
5 | QQLVAYYSKHA [SRC_Y232] | 0.71 | 0.934 | 0.916 | 0.944 | 1.15 | 1.75 | 1.3 | 0.723 | 0.781 | 0.559 | 0.765 | 1.14 | 1.02 | 0.851 | 0.62 | 0.632
6 | IGLHAYGDQYR [IDH1_Y135_R132L] | 0.46 | 0.561 | 0.487 | 0.426 | 0.834 | 0.681 | 0.563 | 0.498 | 0.529 | 0.48 | 0.469 | 0.598 | 0.473 | 0.847 | 0.469 | 0.599
7 | RDWSLYFKIIE [KRT18_Y129_H128L] | 0.395 | 0.4 | 0.576 | 0.327 | 1.56 | 1.66 | 1.09 | 0.447 | 0.356 | 0.464 | 0.799 | 0.841 | 0.354 | 0.567 | 0.314 | 0.406
8 | GVLKEYVVKVL [CPS1_Y529_G530V] | 0.383 | 0.67 | 0.491 | 0.32 | 1.06 | 0.989 | 0.814 | 0.389 | 0.386 | 0.384 | 0.477 | 0.546 | 0.355 | 0.949 | 0.479 | 0.748
9 | DLAAQYTTVGR [SGSH_Y240] | 0.462 | 0.542 | 0.415 | 0.494 | 0.664 | 0.701 | 0.724 | 0.52 | 0.799 | 0.382 | 0.407 | 0.53 | 0.912 | 0.824 | 3.41 | 1.24
